Series [1] addresses Anabaena sensory rhodopsin (Anabaena sp. PCC7120). Description: circular dichroism spectroscopy (visible, exciton coupling of retinals); protein reconstituted in POPE/POPG (3:1) liposomes, protein:lipid 1:50; 100 mM NaCl, 20 mM Tris-HCl (pH 8.0), 25 °C.
Series [2] shares this target. Description: high-speed atomic force microscopy (HS-AFM); protein reconstituted in asolectin lipid membrane of limited size with MSP1E3D1, on APTES-treated mica; 20 mM Tris-HCl (pH 8.0), 50 mM NaCl, room temperature; oligomer seen subunit by subunit.
The target in series [3] is Fulvimarina rhodopsin (Fulvimarina pelagi). Described as above.
For series [4], the target named is KR2_(278) (Krokinobacter eikastus). Description: high-speed atomic force microscopy (HS-AFM); protein reconstituted in asolectin lipid membrane with MSP1E3D1, on APTES-treated mica; acidic solution: 20 mM citrate-NaOH (pH 4.3), 50 mM NaCl, room temperature.
The target is the same in series [5]. As to the kind of experiment: high-speed atomic force microscopy (HS-AFM); protein reconstituted in asolectin lipid membrane of limited size with MSP1E3D1, on APTES-treated mica; 20 mM Tris-HCl (pH 8.0), 50 mM NaCl, room temperature; oligomer seen subunit by subunit.
The target in series [6] is Kineococcus radiotolerans actinorhodopsin (Kineococcus radiotolerans). The description is as above.
For series [7], the target named is Krokinobacter eikastus rhodopsin 2 (Krokinobacter eikastus). As to the kind of experiment: circular dichroism spectroscopy (visible, exciton coupling of retinals); protein solubilized in DDM.
Series [8] shares this target. As to the kind of experiment: high-speed atomic force microscopy (HS-AFM); protein reconstituted in asolectin lipid membrane of limited size with MSP1E3D1, on APTES-treated mica; 20 mM Tris-HCl (pH 8.0), 50 mM NaCl, room temperature; oligomer seen subunit by subunit.
In series [9] the target is Parvularcula oceani xenorhodopsin (Parvularcula oceani). As to the kind of experiment: circular dichroism spectroscopy (visible, exciton coupling of retinals); protein reconstituted in POPE/POPG (3:1) liposomes, protein:lipid 1:50; 100 mM NaCl, 20 mM Tris-HCl (pH 8.0), 25 °C. (In general: Circular dichroism is widely used to follow secondary structure.)
For series [10] the target is unchanged. Description: high-speed atomic force microscopy (HS-AFM); protein reconstituted in asolectin lipid membrane of limited size with MSP1E3D1, on APTES-treated mica; 20 mM Tris-HCl (pH 8.0), 50 mM NaCl, room temperature; oligomer seen subunit by subunit.
The target in series [11] is Quadrisphaera actinorhodopsin (Quadrisphaera sp. R2A-380-A). The description is as above.
Series [12] concerns the molecule itself. The description is as above.
Series [13] concerns the target T1, Natronomonas pharaonis sensory rhodopsin II (Natronomonas pharaonis), P42196.
T1 chain: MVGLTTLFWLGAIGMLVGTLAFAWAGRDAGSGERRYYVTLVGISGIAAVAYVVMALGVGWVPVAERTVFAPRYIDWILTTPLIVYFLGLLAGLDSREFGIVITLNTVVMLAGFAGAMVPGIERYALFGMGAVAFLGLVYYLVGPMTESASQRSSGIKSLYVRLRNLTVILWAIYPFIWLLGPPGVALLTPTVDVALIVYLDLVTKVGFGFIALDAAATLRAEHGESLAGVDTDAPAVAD
The description is as above. As to conditions: remark: other sources report otherwise.

Values joined by “and” are separate entries in the source; they are usually repeats but may differ in a detail not shown here. Equal values may be shown once.

The text below walks through data of article PMC5974397, “Oligomeric states of microbial rhodopsins determined by high-speed atomic force microscopy and circular dichroic spectroscopy” (Scientific Reports, 2018).

On to “Anabaena sensory rhodopsin (natural protein)”, for which the stoichiometry N in series [1] and in series [2] was 3 each time.
Turning to Fulvimarina rhodopsin (natural protein), in [3], the stoichiometry N was 5.
As for KR2_(278) (domain or fragment), the stoichiometry N in [4] and in [5] was 5 each time.
With “Kineococcus radiotolerans actinorhodopsin (natural protein)”, the stoichiometry N in series [6] turned out to be 5.
With “Krokinobacter eikastus rhodopsin 2 (natural protein)”, the stoichiometry N in series [7] and in series [8] was 5 throughout.
As for “Parvularcula oceani xenorhodopsin (natural protein)”, the stoichiometry N in series [9] and in [10] was 3 each time.
For “Quadrisphaera actinorhodopsin (natural protein)”, in series [11], the stoichiometry N was determined as 5.

B1: Natronomonas pharaonis halorhodopsin (natural protein, UniProt P15647 1-291, looked up)
chain: MTETLPPVTESAVALQAEVTQRELFEFVLNDPLLASSLYINIALAGLSILLFVFMTRGLDDPRAKLIAVSTILVPVVSIASYTGLASGLTISVLEMPAGHFAEGSSVMLGGEEVDGVVTMWGRYLTWALSTPMILLALGLLAGSNATKLFTAITFDIAMCVTGLAAALTTSSHLMRWFWYAISCACFLVVLYILLVEWAQDAKAAGTADMFNTLKLLTVVMWLGYPIVWALGVEGIAVLPVGVTSWGYSFLDIVAKYIFAFLLLNYLTSNESVVSGSILDVPSASGTPADD
modifications: retinal chromophore
notes: Halorhodopsin (chloride pump) from Natronomonas pharaonis; also called NpHR
In the case of B1, the “stoichiometry N” value in series [12] was determined as 3.

B2: green-absorbing proteorhodopsin (natural protein, uncultured marine gamma proteobacterium, UniProt Q9F7P4 18-249, looked up)
chain: AGGGDLDASDYTGVSFWLVTAALLASTVFFFVERDRVSAKWKTSLTVSGLVTGIAFWHYMYMRGVWIETGDSPTVFRYIDWLLTVPLLICEFYLILAAATNVAGSLFKKLLVGSLVMLVFGYMGEAGIMAAWPAFIIGCLAWVYMIYELWAGEGKSACNTASPAVQSAYNTMMYIIIFGWAIYPVGYFTGYLMGDGGSALNLNLIYNLADFVNKILFGLIIWNVAVKESSNA
modifications: retinal chromophore
notes: Green-absorbing proteorhodopsin (GPR), proton pump, from uncultured marine gamma proteobacterium; Pentamers (76%) and hexamers (24%) coexist in the lipid; copies gives the dominant form; also called green proteorhodopsin
In the case of B2, the “stoichiometry N” value in [12] is 5 and 6.

B3: Natronomonas pharaonis sensory rhodopsin II, P42196 1-239 (natural protein)
chain: T1 chain
modifications: here or on the partner: retinal chromophore; retinal chromophore
Molecule B3 gave a stoichiometry N in series [13] of 3.

B4: Gloeobacter rhodopsin (natural protein, Gloeobacter violaceus PCC 7421, UniProt Q7NP59 1-298, looked up)
chain: MLMTVFSSAPELALLGSTFAQVDPSNLSVSDSLTYGQFNLVYNAFSFAIAAMFASALFFFSAQALVGQRYRLALLVSAIVVSIAGYHYFRIFNSWDAAYVLENGVYSLTSEKFNDAYRYVDWLLTVPLLLVETVAVLTLPAKEARPLLIKLTVASVLMIATGYPGEISDDITTRIIWGTVSTIPFAYILYVLWVELSRSLVRQPAAVQTLVRNMRWLLLLSWGVYPIAYLLPMLGVSGTSAAVGVQVGYTIADVLAKPVFGLLVFAIALVKTKADQESSEPHAAIGAAANKSGGSLIS
modifications: retinal chromophore
notes: Gloeobacter rhodopsin (GR), proton pump, from Gloeobacter violaceus PCC 7421; also called GR; rhodopsin from Gloeobacter violaceus PCC 7421; not shown: His6, C-terminal, kept
Turning to B4, the “stoichiometry N” value in series [12] amounted to 5.

For orientation: stoichiometry N means the number of molecules, sites or subunits per partner or assembly.
